We go through one molecule from paper PMC10538664 (2023).

This assay deals with prototype SARS-CoV-2 tandem RBD homotrimer (PPP) (SARS-CoV-2, UniProt P0DTC2). In words: SPR. Background: In SPR one partner is held on a chip, and binding of the other changes the refractive index at the surface.

B1: fragment antigen binding (Fab) of mAb CB6 (Fab, V domains shown)
VH: EVQLVESGGGLVQPGGSLRLSCAASGFTVSSNYMSWVRQAPGKGLEWVSVIYSGGSTFYADSVKGRFTISRDNSMNTLFLQMNSLRAEDTAVYYCARVLPMYGDYLDYWGQGTLVTVSS
VL: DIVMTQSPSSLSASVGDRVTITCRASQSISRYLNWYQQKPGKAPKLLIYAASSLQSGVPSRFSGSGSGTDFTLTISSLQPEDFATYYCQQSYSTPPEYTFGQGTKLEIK
The term Kd denotes the equilibrium constant for the complex coming apart. A lower Kd goes with tighter binding. Consider B1, for which the affinity, expressed as Kd, was 24.3 nM.
